Experimental findings from the supplement of paper PMC6379048 are described below.

As a reminder, the EC50 is the concentration needed to bring the measured effect to its halfway point. Read a low EC50 as a more potent agent.

Common to all, as to assay: EC50 of free RNA motif oligo competing protein binding to immobilised probe
One series has as its target T1, GPALPP1 (UniProt Q8IXQ4).
T1 sequence: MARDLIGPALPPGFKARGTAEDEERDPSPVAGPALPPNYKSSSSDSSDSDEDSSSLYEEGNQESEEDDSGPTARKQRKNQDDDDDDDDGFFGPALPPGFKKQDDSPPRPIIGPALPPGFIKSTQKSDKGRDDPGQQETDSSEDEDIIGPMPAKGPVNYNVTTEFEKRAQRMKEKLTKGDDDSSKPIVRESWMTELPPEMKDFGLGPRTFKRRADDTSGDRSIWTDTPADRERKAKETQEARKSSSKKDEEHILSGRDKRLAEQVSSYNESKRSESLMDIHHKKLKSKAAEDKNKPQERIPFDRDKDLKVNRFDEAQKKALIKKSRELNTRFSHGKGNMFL
The method in brief:
(§1)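 HEK293-FT lysate (2.5 mg protein/well) was treated with free RNA oligos (0 nM to 30 μM) for 1 h at 4°C, then with the same oligos on NHS-Sepharose beads for 30 min at 4°C. Bound proteins were quantified by label-free LC-MS/MS relative to the control. EC50 came from a four-parameter log-logistic fit, and Kd is EC50 times a protein-dependent depletion factor.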

The next series addresses T2, PARP12 (UniProt Q9H0J9).
T2 sequence: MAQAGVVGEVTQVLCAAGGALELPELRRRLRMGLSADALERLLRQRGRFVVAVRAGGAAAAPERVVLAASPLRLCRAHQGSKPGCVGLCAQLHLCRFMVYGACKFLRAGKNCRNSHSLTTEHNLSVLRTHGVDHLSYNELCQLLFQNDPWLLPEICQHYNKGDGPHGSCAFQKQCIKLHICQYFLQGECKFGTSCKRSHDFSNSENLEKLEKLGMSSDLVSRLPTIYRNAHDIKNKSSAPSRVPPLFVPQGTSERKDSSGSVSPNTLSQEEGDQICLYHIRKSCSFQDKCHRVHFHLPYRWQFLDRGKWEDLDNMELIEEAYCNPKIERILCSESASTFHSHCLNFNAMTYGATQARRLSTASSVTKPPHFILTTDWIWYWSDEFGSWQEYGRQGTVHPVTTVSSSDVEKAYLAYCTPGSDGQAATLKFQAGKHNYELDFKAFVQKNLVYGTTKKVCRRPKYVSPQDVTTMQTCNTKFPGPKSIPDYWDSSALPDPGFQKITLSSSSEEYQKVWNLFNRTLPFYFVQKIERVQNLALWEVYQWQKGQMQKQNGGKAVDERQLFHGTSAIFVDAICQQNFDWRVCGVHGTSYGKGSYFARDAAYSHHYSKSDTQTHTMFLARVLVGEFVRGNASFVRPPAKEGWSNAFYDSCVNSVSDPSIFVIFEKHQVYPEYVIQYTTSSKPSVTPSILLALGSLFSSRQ
In a few lines:
as §1

In a further series the target is MRPL50 (UniProt Q8N5N7). In a few lines:
as §1

A further series addresses T3, DHX37 (UniProt Q8IY37).
T3 sequence: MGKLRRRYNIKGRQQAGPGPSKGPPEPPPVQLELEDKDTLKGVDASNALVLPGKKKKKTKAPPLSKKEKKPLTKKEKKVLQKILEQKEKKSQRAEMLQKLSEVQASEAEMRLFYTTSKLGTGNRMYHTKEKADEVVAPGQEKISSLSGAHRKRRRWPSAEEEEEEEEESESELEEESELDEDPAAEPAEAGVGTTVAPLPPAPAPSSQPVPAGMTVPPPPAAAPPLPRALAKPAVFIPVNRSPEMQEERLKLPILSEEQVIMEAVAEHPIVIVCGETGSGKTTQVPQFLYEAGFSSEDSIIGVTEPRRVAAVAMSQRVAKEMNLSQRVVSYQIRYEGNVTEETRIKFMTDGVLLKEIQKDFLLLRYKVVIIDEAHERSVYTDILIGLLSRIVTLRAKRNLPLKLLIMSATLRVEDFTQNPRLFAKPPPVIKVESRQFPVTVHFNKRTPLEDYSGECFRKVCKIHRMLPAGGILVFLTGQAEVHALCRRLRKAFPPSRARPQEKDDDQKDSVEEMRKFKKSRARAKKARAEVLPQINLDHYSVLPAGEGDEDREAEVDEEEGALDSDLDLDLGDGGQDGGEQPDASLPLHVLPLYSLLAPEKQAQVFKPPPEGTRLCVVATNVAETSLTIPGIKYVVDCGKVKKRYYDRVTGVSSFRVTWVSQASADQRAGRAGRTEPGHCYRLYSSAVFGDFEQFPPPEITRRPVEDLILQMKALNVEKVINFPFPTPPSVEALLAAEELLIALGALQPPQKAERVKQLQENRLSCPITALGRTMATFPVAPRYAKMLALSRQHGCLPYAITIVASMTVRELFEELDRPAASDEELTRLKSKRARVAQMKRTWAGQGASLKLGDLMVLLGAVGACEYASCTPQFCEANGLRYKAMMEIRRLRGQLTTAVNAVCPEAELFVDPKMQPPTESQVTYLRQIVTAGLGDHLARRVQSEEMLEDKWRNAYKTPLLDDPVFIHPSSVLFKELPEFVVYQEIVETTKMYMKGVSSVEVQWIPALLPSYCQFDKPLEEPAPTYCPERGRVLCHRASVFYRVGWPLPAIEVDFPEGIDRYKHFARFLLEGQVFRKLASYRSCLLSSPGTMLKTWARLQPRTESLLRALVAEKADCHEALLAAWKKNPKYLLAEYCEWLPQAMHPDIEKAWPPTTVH
In a few lines:
as §1

The target of a further series is MRPS22 (UniProt P82650). The method in brief:
as §1

For the sequence AAUAAA, the EC50 in the series with GPALPP1 worked out at 33.8 nM; with PARP12, 11200 nM.

The sequence CUGUCCU yielded an EC50 with MRPL50 of 244 nM.

On to UAUUUAU, for which the EC50 was 4680 nM with DHX37 and 85.6 nM with MRPS22.
